Here are results for 84 variants from the RNAGym collection of RNA variant scans (doi:10.1073/pnas.2313332121).

The labels stand for the following.
B1: TPR 5TU (parent)
chain: GGAUCUUCUCGAUCUAACAAAAAAGACAAAUCUGCCACAAAGCUUGAGAGCAUCUUCGGAUGCAGAGGCGGCAGCCUUCGGUGGCGCGAUAGCGCCAACGUUCUCAACUAUGACACGCAAAACGCGUGCUCCGUUGAAUGGAGUUUAUCAUG

Fewer inactive variants are shown than the library holds.

The variants in this data set derive from B1. Put plainly: polymerase ribozyme fitness, log enrichment relative to wild type (log ratio); higher = more active; in vitro selection for triplet polymerase activity. In outline: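 Only genotypes with ≥10 input reads and ≥1 read per output were kept after Illumina sequencing of input and output libraries. These libraries were PCR-built, transcribed mutants of each subunit of a heterodimeric triplet polymerase ribozyme, each put through one triplicate in vitro selection round with frozen incubation at −7 °C, gel excision of extended constructs, streptavidin-bead capture and RT-PCR. Fitness is a logarithmic ratio of genotype enrichment to wild-type enrichment, from inverse-variance-weighted replicate averages, with the logarithm in base 2.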
As for U9G C27G U31G U61G C75G G94A C105U, the “polymerase ribozyme fitness (log ratio)” value is no more than -4.2.

As for U9A G25U C36U G50C G86A, the “polymerase ribozyme fitness (log ratio)” value is no more than -4.2.

Take U9G C10A C43U C57G C99A: the “polymerase ribozyme fitness (log ratio)” value is no more than -4.2.

In the case of U9A C57G G84U, the “polymerase ribozyme fitness (log ratio)” value was no more than -4.2.

For the variant U9A A24U A37C G42C G50C G58A C85G A91C U148A, the “polymerase ribozyme fitness (log ratio)” value was no more than -4.2.

In the case of U9C A28U A30C U61A G88A A91U G92A A119U, the “polymerase ribozyme fitness (log ratio)” value is no more than -4.2.

In the case of U9C C54U C85A G136C, the “polymerase ribozyme fitness (log ratio)” value is no more than -4.2.

As for U9G C87G C93U C125A, the “polymerase ribozyme fitness (log ratio)” value is no more than -4.2.

For the variant U9C A22C C54U C57U G100U C105G, the “polymerase ribozyme fitness (log ratio)” value is no more than -4.2.

For the variant U9G U139C, the “polymerase ribozyme fitness (log ratio)” value is no more than -4.2.

C10G A26U A28C C87A G88U A91C U145C: the “polymerase ribozyme fitness (log ratio)” value was no more than -4.2.

As for C8U C123G, the “polymerase ribozyme fitness (log ratio)” value was -3.42.

Take U9A G11A C14U A19G C76A U82G C103A C116U: the “polymerase ribozyme fitness (log ratio)” value is no more than -4.2.

As to C10G A12G A120U U135C, the “polymerase ribozyme fitness (log ratio)” value was no more than -4.2.

Turning to C10G A28U C54U C85G C116U, the “polymerase ribozyme fitness (log ratio)” value is no more than -4.2.

Take U9A U55G U78G G143C: the “polymerase ribozyme fitness (log ratio)” value is no more than -4.2.

On to C10G C18U G59U G86A C103A, for which the “polymerase ribozyme fitness (log ratio)” value is no more than -4.2.

With U9C U55G, the “polymerase ribozyme fitness (log ratio)” value is -3.53.

Regarding U9C A16U A19U U31A C35U A49U, the “polymerase ribozyme fitness (log ratio)” value was no more than -4.2.

As for U9C C14U C76A C87G, the “polymerase ribozyme fitness (log ratio)” value is no more than -4.2.

C8U G83A: the “polymerase ribozyme fitness (log ratio)” value is -2.94.

Regarding C8U G83C, the “polymerase ribozyme fitness (log ratio)” value was -2.8.

In the case of C8U G83U, the “polymerase ribozyme fitness (log ratio)” value was -3.5.

Take U9G G46C C76A C85G U90G A121U: the “polymerase ribozyme fitness (log ratio)” value was no more than -4.2.

C10G A89C U148C: the “polymerase ribozyme fitness (log ratio)” value is no more than -4.2.

Consider U9A A16U A19U C27G U77C G84A G100C G133U G141A U145A, for which the “polymerase ribozyme fitness (log ratio)” value is no more than -4.2.

U9A A23G G68C C79U G94C C105G G143A: the “polymerase ribozyme fitness (log ratio)” value is no more than -4.2.

Turning to C10A C32A U56G G80C U82G C87U A98U, the “polymerase ribozyme fitness (log ratio)” value is no more than -4.2.

Consider U9G U145C, for which the “polymerase ribozyme fitness (log ratio)” value is -3.95.

Take U9A A17U G58A U151A: the “polymerase ribozyme fitness (log ratio)” value was no more than -4.2.

U9C U56A C76A C108G G143U A150G: the “polymerase ribozyme fitness (log ratio)” value is no more than -4.2.

Turning to C8U C54U U56C C85A G92C, the “polymerase ribozyme fitness (log ratio)” value is no more than -4.2.

U9C A66G C76G G92U C114A: the “polymerase ribozyme fitness (log ratio)” value is no more than -4.2.

As for C10G A40U A64U C76G C85A G117U G136A G143A, the “polymerase ribozyme fitness (log ratio)” value was no more than -4.2.

As for U9A A73G, the “polymerase ribozyme fitness (log ratio)” value was no more than -4.2.

As for U9G G25C A47G C87A G92U C114A, the “polymerase ribozyme fitness (log ratio)” value is no more than -4.2.

U9A A17C A20C C54U U55G G58A G67A C116G G143A: the “polymerase ribozyme fitness (log ratio)” value was no more than -4.2.

With U9A C85A U90C U104A U127G G140A, the “polymerase ribozyme fitness (log ratio)” value was no more than -4.2.

C10G C36G A47U G65U C79G C93U C99G G126C U144C U148C: the “polymerase ribozyme fitness (log ratio)” value was no more than -4.2.

With U9A C32G C54A G86C U109G G136A, the “polymerase ribozyme fitness (log ratio)” value is no more than -4.2.

Regarding C8U C96U, the “polymerase ribozyme fitness (log ratio)” value is -2.69.

Consider C8U C96G, for which the “polymerase ribozyme fitness (log ratio)” value was -2.63.

For C10A U31C G46A C69G G80A U82A G86A C99U G100U G141A, the “polymerase ribozyme fitness (log ratio)” value was no more than -4.2.

On to C10G A17C C36U G48A A64U G88C C118G, for which the “polymerase ribozyme fitness (log ratio)” value was no more than -4.2.

With C10A C54A A91C C105A C129A G143C, the “polymerase ribozyme fitness (log ratio)” value is no more than -4.2.

Turning to U9G A40C, the “polymerase ribozyme fitness (log ratio)” value is -3.48.

Take U9G C87U: the “polymerase ribozyme fitness (log ratio)” value is -4.11.

As for C10A C14G U77A C85A G92A A110G A122G, the “polymerase ribozyme fitness (log ratio)” value was no more than -4.2.

Consider U9G C36U C76A G94A, for which the “polymerase ribozyme fitness (log ratio)” value was no more than -4.2.

Regarding U9G A37U C57U C85U G128A G141A U146A, the “polymerase ribozyme fitness (log ratio)” value was no more than -4.2.

Turning to C10A A22G G46A C54U C75G G83U C95A, the “polymerase ribozyme fitness (log ratio)” value is no more than -4.2.

As to U9A C43A A147U U151G, the “polymerase ribozyme fitness (log ratio)” value is no more than -4.2.

Regarding U9A A22C A37U U45A U53A G84A A147U, the “polymerase ribozyme fitness (log ratio)” value was no more than -4.2.

Regarding U9C A73U, the “polymerase ribozyme fitness (log ratio)” value is -4.1.

Take U9G U31G G42U U53A G58C: the “polymerase ribozyme fitness (log ratio)” value is no more than -4.2.

As to U9G A16U A64U C85G U135C U144G A150U, the “polymerase ribozyme fitness (log ratio)” value is no more than -4.2.

On to C8U U53A, for which the “polymerase ribozyme fitness (log ratio)” value was -3.41.

C8U C79G G84A G94C G136C A138G A150G: the “polymerase ribozyme fitness (log ratio)” value is no more than -4.2.

With U9A A19C A41C C57U C96U, the “polymerase ribozyme fitness (log ratio)” value was no more than -4.2.

For U9G A29U U53G U55G C93A A137C, the “polymerase ribozyme fitness (log ratio)” value is no more than -4.2.

Take C10A G42C U44A U53A C85A A122C: the “polymerase ribozyme fitness (log ratio)” value is no more than -4.2.

For C10A C96U G143A, the “polymerase ribozyme fitness (log ratio)” value was no more than -4.2.

Take C10A C79A A97G A150G: the “polymerase ribozyme fitness (log ratio)” value was no more than -4.2.

Consider U9C C10G C36G U55A G84A G126A, for which the “polymerase ribozyme fitness (log ratio)” value is no more than -4.2.

Consider C10A U13C A30C G83A G88A A98U C125A A147G, for which the “polymerase ribozyme fitness (log ratio)” value is no more than -4.2.

Consider C10G A52C C93U, for which the “polymerase ribozyme fitness (log ratio)” value was no more than -4.2.

With U9C G50C C75G C85G C125A, the “polymerase ribozyme fitness (log ratio)” value was no more than -4.2.

For the variant U9A C35U U55A A91C, the “polymerase ribozyme fitness (log ratio)” value is no more than -4.2.

On to C10G C36U U55A C95U G133U, for which the “polymerase ribozyme fitness (log ratio)” value is no more than -4.2.

For the variant C10G A30C G92U A107G U148C A150U, the “polymerase ribozyme fitness (log ratio)” value was no more than -4.2.

As to U9C A30G A66C G84A A150C, the “polymerase ribozyme fitness (log ratio)” value is no more than -4.2.

On to C10G C36U G70C C79A C95G A115U, for which the “polymerase ribozyme fitness (log ratio)” value was no more than -4.2.

In the case of U9A A16G C54U C75U C76A A120U, the “polymerase ribozyme fitness (log ratio)” value is no more than -4.2.

For U9G C35U A52C U61A C87A U101C C125A, the “polymerase ribozyme fitness (log ratio)” value is no more than -4.2.

On to U9G G50A G83A G133U, for which the “polymerase ribozyme fitness (log ratio)” value was no more than -4.2.

C10G A20U A52C G86A G92U A115U G152A: the “polymerase ribozyme fitness (log ratio)” value is no more than -4.2.

On to U9A A20C A26G A28U G67U U82C U90G G124A U134C U146A, for which the “polymerase ribozyme fitness (log ratio)” value is no more than -4.2.

For C8U G42C C51U U61G C95A C125G U127G A137U C149G, the “polymerase ribozyme fitness (log ratio)” value was no more than -4.2.

As to U9A A20U A28U C79A C87U U139A, the “polymerase ribozyme fitness (log ratio)” value is no more than -4.2.

Regarding U9A A39C U53G G92A G112C A113G C149G, the “polymerase ribozyme fitness (log ratio)” value was no more than -4.2.

C10G A20G A138G U144A U145A: the “polymerase ribozyme fitness (log ratio)” value was no more than -4.2.

As to U9A C36A C72G G92A C129A A137U, the “polymerase ribozyme fitness (log ratio)” value is no more than -4.2.

On to U9G A142G, for which the “polymerase ribozyme fitness (log ratio)” value is no more than -4.2.

With C8U U33A A37C G50A A60U C72A G86A U90A A138G U151G, the “polymerase ribozyme fitness (log ratio)” value is no more than -4.2.
